Target: 6xHis-TLX ligand-binding domain (UniProt Q9Y466 155-385)
Sequence (Q9Y466 155-385): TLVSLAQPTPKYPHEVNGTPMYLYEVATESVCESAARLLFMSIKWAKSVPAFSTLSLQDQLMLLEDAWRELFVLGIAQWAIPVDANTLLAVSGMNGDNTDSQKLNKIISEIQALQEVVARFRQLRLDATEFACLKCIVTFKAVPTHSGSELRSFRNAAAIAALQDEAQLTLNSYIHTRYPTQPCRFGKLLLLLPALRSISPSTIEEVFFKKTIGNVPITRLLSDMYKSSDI

Binder: LTERHKILHRLLQEGSPSD [NCOA1-II peptide (competitor in the ALPHA competition experiment)]
- EC50: 3.3 µM
